# In article PMC6086383:
# B1: HuBChE (Homo sapiens) (protein)
# chain: EDDIIIATKNGKVRGMNLTVFGGTVTAFLGIPYAQPPLGRLRFKKPQSLTKWSDIWNATKYANSCCQNIDQSFPGFHGSEMWNPNTDLSEDCLYLNVWIPAPKPKNATVLIWIYGGGFQTGTSSLHVYDGKFLARVERVIVVSMNYRVGALGFLALPGNPEAPGNMGLFDQQLALQWVQKNIAAFGGNPKSVTLFGESAGAASVSLHLLSPGSHSLFTRAILQSGSFNAPWAVTSLYEARNRTLNLAKLTGCSRENETEIIKCLRNKDPQEILLNEAFVVPYGTPLSVNFGPTVDGDFLTDMPDILLELGQFKKTQILVGVNKDEGTAFLVYGAPGFSKDNNSIITRKEFQEGLKIFFPGVSEFGKESILFHYTDWVDDQRPENYREALGDVVGDYNFICPALEFTKKFSEWGNNAFFYYFEHRSSKLPWPEWMGVMHGYEIEFVFGLPLERRDNYTKAEEILSRSIVKRWANFAKYGNPNETQNNSTSWPVFKSTEQKYLTLNTESTRIMTKLRAQQCRFWTSFFPKVLEMTGNIDEAEWEWKAGFHRWNNYMMDWKNQFNDYTSKKESCVGL
# Substrate: CC(=O)SCC[N+](C)(C)C
# Test: Steady state kinetics of substrate hydrolysis, HuBChE
# Format: biochemical, human
# Conditions: other: HuBChE, equation 1, 50 mM sodium phosphate pH 8.0, 22 °C
protein,measurement,value
B1,Km,31 ± 4 µM
same,kcat,23±2 x10^3 min^−1
same,kcat/Km,697±14 ×10^3 min^−1 mM^−1
